Source: article PMC4361764, “TatBC-Independent TatA/Tat Substrate Interactions Contribute to Transport Efficiency” (PLoS ONE, 2015)

Molecular target: the molecule itself
Experiment: SEC; TatA-strep purified from the soluble fraction (Strep-Tactin), Superose 6, 10 mM Hepes pH 8.0, 150 mM NaCl, no detergent; Western blot of elution fractions

B1: Strep-tagged TatA from Escherichia coli (natural protein, UniProt P69428 1-89, looked up)
chain: MGGISIWQLLIIAVIVVLLFGTKKLGSIGSDLGASIKGFKKAMSDDEPKQDKTSQDADFTAKTIADKQADTNQEQAKTEDAKRHDKEQV
notes: TatA of Escherichia coli; The soluble form is a large association of many protomers; also called TatA-strep; soluble TatA-strep; source: E. coli DADE tatA-strep-tatBC (single-copy, wild-type level): in crude soluble extract; or purified from the soluble fraction (Strep-Tactin, Superose 6); not shown: Strep-tag, C-terminal, kept
binding result: binds
